{"source": "paper PMC4253670", "about": "(Biochemical and biophysical research communications, 2014)", "key": {"MPO [1]": {"biological_target": "T1, MPO (Homo sapiens, UniProt P05164)", "T1 sequence (P05164 279-745 limits assumed)": "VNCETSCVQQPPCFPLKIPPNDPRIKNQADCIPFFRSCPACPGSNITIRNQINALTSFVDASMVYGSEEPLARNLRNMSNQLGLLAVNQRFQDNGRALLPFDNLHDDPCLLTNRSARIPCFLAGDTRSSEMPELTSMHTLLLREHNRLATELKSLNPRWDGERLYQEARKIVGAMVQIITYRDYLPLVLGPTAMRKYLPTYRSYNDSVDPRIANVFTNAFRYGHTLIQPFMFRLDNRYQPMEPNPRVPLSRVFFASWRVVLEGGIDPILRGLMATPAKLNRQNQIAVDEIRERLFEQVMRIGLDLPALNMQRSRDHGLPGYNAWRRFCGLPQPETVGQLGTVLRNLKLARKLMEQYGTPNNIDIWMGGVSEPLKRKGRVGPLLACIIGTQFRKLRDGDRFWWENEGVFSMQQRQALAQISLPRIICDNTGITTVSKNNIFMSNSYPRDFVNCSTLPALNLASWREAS", "T1 sequence (P05164 165-273 limits assumed)": "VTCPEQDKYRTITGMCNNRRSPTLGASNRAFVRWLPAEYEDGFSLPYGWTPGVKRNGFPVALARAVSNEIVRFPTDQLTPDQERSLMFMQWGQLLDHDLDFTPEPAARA", "test": "Direct binding ELISA of HPLC-purified peptides", "settings": "24-mer P18, 21-mers of P18, P48, P76, negative controls P28 and P61, mean ± SEM, n = 4 wells, p<0.05, figure 3B"}, "MPO [2]": {"biological_target": "T1, MPO", "test": "Peptide screening, direct binding ELISA of 87 overlapping Cp peptides", "settings": "combined data of 87 ELISA plates; 24-mers not HPLC-purified; figure 2A"}, "Cp": {"system": "Cp", "settings": "oxidation of ferrous ions and removal of peroxides; ref [14]; cited from earlier work"}, "MPO [3]": {"system": "MPO", "settings": "ref [14]; cited from earlier work"}, "MPO [4]": {"biological_target": "T1, MPO", "test": "Surface plasmon resonance, immobilized MPO", "settings": "read-out: binding affinity (Kd); MPO immobilized on CM5 chip via -NH2; Cp 1 to 200 nM; Biacore3000, 30 μl/min; Biaevaluation software"}}, "note": "Entries after “also recorded” stand apart in the source; their conditions may differ. Where no end group is shown, it is not given here."}
{"molecule": "VVDENFSWYLEDNIKTYCSEPEKV [P18]", "values": [{"measurement": "binding of MPO to HPLC-purified surface-adsorbed peptide", "setting": "MPO [1]", "value": "bound more MPO than its shorter, 21-mer version; also recorded: bound more MPO than P76"}, {"measurement": "peptide-MPO to Cp-MPO absorbance ratio", "setting": "MPO [2]", "value": "two major peaks"}]}
{"molecule": "Cp: Purified human Cp (Vital Products), copper-containing ferroxidase (protein) KEKHYYIGIIETTWDYASDHGEKKLISVDTEHSNIYLQNGPDRIGRLYKKALYLQYTDETFRTTIEKPVWLGFLGPIIKAETGDKVYVHLKNLASRPYTFHSHGITYYKEHEGAIYPDNTTDFQRADDKVYPGEQYTYMLLATEEQSPGEGDGNCVTRIYHSHIDAPKDIASGLIGPLIICKKDSLDKEKEKHIDREFVVMFSVVDENFSWYLEDNIKTYCSEPEKVDKDNEDFQESNRMYSVNGYTFGSLPGLSMCAEDRVKWYLFGMGNEVDVHAAFFHGQALTNKNYRIDTINLFPATLFDAYMVAQNPGEWMLSCQNLNHLKAGLQAFFQVQECNKSSSKDNIRGKHVRHYYIAAEEIIWNYAPSGIDIFTKENLTAPGSDSAVFFEQGTTRIGGSYKKLVYREYTDASFTNRKERGPEEEHLGILGPVIWAEVGDTIRVTFHNKGAYPLSIEPIGVRFNKNNEGTYYSPNYNPQSRSVPPSASHVAPTETFTYEWTVPKEVGPTNADPVCLAKMYYSAVEPTKDIFTGLIGPMKICKKGSLHANGRQKDVDKEFYLFPTVFDENESLLLEDNIRMFTTAPDQVDKEDEDFQESNKMHSMNGFMYGNQPGLTMCKGDSVVWYLFSAGNEADVHGIYFSGNTYLWRGERRDTANLFPQTSLTLHMWPDTEGTFNVECLTTDHYTGGMKQKYTVNQCRRQSEDSTFYLGERTYYIAAVEVEWDYSPQREWEKELHHLQEQNVSNAFLDKGEFYIGSKYKKVVYRQYTDSTFRVPVERKAEEEHLGILGPQLHADVGDKVKIIFKNMATRPYSIHAHGVQTESSTVTPTLPGETLTYVWKIPERSGAGTEDSACIPWAYYSTVDQVKDLYSGLIGPLIVCRRPYLKVFNPRRKLEFALLFLVFDENESWYLDDNIKTYSDHPEKVNKDDEEFIESNKMHAINGRMFGNLQGLTMHVGDEVNWYLMGMGNEIDLHTVHFHGHSFQYKHRGVYSSDVFDIFPGTYQTLEMFPRTPGIWLLHCHVTDHIHAGMETTYTVLQNEDTKSG", "values": [{"measurement": "effect of MPO binding on antioxidant activities of Cp", "setting": "Cp", "value": "does not inhibit important antioxidant activities of Cp"}, {"measurement": "binding to and inhibition of myeloperoxidase", "setting": "MPO [3]", "value": "bind and inhibit myeloperoxidase (MPO)"}, {"measurement": "Kd", "setting": "MPO [4]", "value": 30, "unit": "nM"}]}
